Results on one molecule are retold here after PMC5687670, “hYSK1 promotes cancer cell proliferation and migration through negative regulation of p16^INK4a under hypoxic conditions” (Oncotarget, 2017).

The target of this experiment is T1, hYSK1 on the ProtoArray Human Protein Microarray (human, UniProt O00506 1-426).
T1 construct: hYSK1, human Ste20 family serine/threonine protein kinase; one of 1,800 recombinant human proteins on the array; also called human analog of YSK1; source: bought: ProtoArray Human Protein Microarray (v.1.0), recombinant human protein printed on nitrocellulose slide
T1 sequence (O00506 whole entry): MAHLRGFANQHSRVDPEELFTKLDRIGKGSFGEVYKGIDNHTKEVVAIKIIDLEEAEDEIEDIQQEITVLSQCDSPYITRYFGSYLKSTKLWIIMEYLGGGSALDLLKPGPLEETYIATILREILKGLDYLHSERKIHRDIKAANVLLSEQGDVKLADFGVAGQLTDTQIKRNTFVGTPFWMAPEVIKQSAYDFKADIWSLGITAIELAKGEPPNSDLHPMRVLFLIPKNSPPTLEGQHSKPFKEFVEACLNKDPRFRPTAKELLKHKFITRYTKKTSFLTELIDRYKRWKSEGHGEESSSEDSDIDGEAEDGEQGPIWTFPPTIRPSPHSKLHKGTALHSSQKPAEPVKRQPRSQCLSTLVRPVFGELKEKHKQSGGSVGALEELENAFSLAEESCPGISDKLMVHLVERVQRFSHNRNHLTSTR
The experiment in a line: peptide or protein array; ProtoArray Human Protein Microarray (v.1.0), 1,800 recombinant human proteins on nitrocellulose slides, blocked and probed with biotin-labeled p16^INK4a; detected with streptavidin-Alexa Fluor 647. The conditions noted are these: both partners purified.

B1: biotin-labeled p16^INK4a (natural protein, UniProt P42771 1-156, looked up)
chain: MEPAAGSSMEPSADWLATAAARGRVEEVRALLEAGALPNAPNSYGRRPIQVMMMGSARVAELLLLHGAEPNCADPATLTRPVHDAAREGFLDTLVVLHRAGARLDVRDAWGRLPVDLAEELGHRDVARYLRAAAGGTRGSNHARIDAAEGPSDIPD
modifications: biotin (biotinylated; site not stated)
notes: probe for the protein microarray
As for B1, the binding result is on record as “binds”.
